# Assay results: patent US20210246195A1 (CZ BIOHUB SF, published 2021)
# Numbering of substitutions follows the chain as printed.
# B1: PA01P2D09 (antibody, human IgG1, V domains shown)
# VH: EVQLLESGGGLVQPGGSLRLSCAVSGLKFSSYAMSWVRQAPGKGLEWVSVVSGSSGSTFYAVSVEGRFSISRDNSNNMLYMDMHSLRVEDTAKYYCAKVVGWYYDRNGNRRPKGFRAFDVWGQGTMVIVSS
# VL: QSVLTQPPSASGTPGQRITIACSGTTSNIGGNSVNWYQQFPGAAPRLLIFDYDQRPSGVPARFSGSSSGSSGYLAISGLQSEDEADYYCSSWDDNLNGWVFGGGTKLTVL
# notes: also called PA1P2D09
# B2: PA01P2D04 (antibody, human IgG1, V domains shown)
# VH: QVQLLQSGPEVKQPGASVQVSCQTSGYTFTGYYIHWVRQAPGQGLEWVGWINPNRGHTNYGPAFQGRLTLTADTSSSTAYLELTRLRSDDTAVYYCARDRLTGGRDAFEIWGQGTMLIVSS
# VL: DIQLTQSPSSLSASVGDRVTITCRASQSISSYLNWYQQKPGKAPKLLISVASSLQDGVPPRFSGSRSGTEFTLTISSLQPEDFAIYYCQQSYSLSWTFGQGTKVEIK
# B3: PA01P2B12 (antibody, human IgG1, V domains shown)
# VH: B2 VH with L5V, P9A, S21A, T28I, G31A, V37L, G61A, A63G, E82A, R87A
# VL: B2 VL with I29V, K42E, V50A, S95W
# B4: PA01P2B05 (antibody, human IgG1, V domains shown)
# VH: EVQLLESGGGLVQPGGSLRLSCVASGFTFSGHAMSWVRQAPGKGLEWVSGISGSGGSTYYADSVKGRFTISRDNSKKTVDLQMNNLRAEDTAIYYCAKDLHFDTSGYYYSMIFDYWGQGTLVPVSS
# VL: QSALAQPASVSGSPGQSITISCTGTSSDISDYNYVSWYQQHPGKAPKLILYDVNNRPSGVSSRFSGSKSGDTASLTISGLQPEDEADYYCSSYTSTKIFGGGTKVTVL
# B5: PA01P2D10 (antibody, human IgG1, V domains shown)
# VH: EVLLLESGGGLVHPGGTLRLSCAASGFTFRNSAMTWVRQAPGKGLEWVSSIGGSGAKSYYADSVKGRFTISRDNSKNTLYLEMNTLRVDDTAIYYCAKDQLNCYDLWSGDYCWFDTWGQGTLVTVSS
# VL: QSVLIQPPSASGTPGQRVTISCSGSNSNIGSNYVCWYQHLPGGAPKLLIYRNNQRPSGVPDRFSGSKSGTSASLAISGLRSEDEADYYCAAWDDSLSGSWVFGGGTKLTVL
# B6: PA01P2E08 (antibody, human IgG1, V domains shown)
# VH: QVQLVESGGGVVQPGRSLRLSCVASGFDLNAYGMHWVRQAPGKGLDWVAATSRGGTKKYYADSVKGRFTISRDVSKNTLYLQMGSLRTGDTAIYYCGVGMEDVFDIWGQGTMVTVSP
# VL: QSVLTQPPSVSAAPGQKVTISCSENNSNIGNRNVSWYQQLPGKAPKLFIYDNNERPSGIPARFSGSKSGTSATLVITGLQTGDEADYYCGTWDRSLSVWVFGGGTKLTVL
# B7: PA01P3E08 (antibody, V domains shown)
# VH: QVQLVQSGAEVKKPGASVKVSCKASGYTFIRYDIHWVRQATGQGLEWMGWMNPNNGKSGFAQKFEGRVTLTRNTSVTSTYMQLSSLGLEDTAVYYCVRAGYSYGWGFDYWGQGSLVTVSS
# VL: NFTLTQPHSVSGSPGKTVTISCTRSSGGIASSHVQWYQQRPASAPTTLIFEDDQRSSGVPDRFSGSIDTSSNSAYLTISGLEAEDEADYYCQSYDNSMWVFGGGSKVTVL
# notes: subject PA01; also called Clone PA01P3E08
# B8: PA01P2D11 (antibody, V domains shown)
# VH: QLQLQESGSGLVKPSQTLSLTCDVSGDSMNDDVYTWSWIRQPPGRGLEWIGYISHTGNTFYNSSLQSRVTMSVDTSKNQFSLKLSSVTIADTAVYYCARLTFLFSAPFSSFNWFDPWGQGILVTVSS
# VL: QSVLTQPPSVSGAPGQTITISCTGTPSNFGADYDVHWYQQRPGTAPKLLIFADKHRPSGVPDRFSGSRSGTSASLAISGLQAEDEADYYCQSYDSGVVGLWVFGGGTKVTVL
# notes: subject PA01; also called Clone PA01P2D11
# B9: PA01P2C04 (antibody, V domains shown)
# VH: QVQLQESGPGLVKPSETLSLTCSVSGGSISSHYWSWIRQPPGRGLEWIAYISYSGRTKYNPSLKSRVTISEDTSKNQFSLKLSSVTPADTAVYYCARIYGDYGPFIDYWGQGTLVTVSS
# VL: DIQMTQSPSSLSASVGDRVTITCRASQTISTYLNWYQQKPGTAPMLLIYGAYSLHSGVPSRFSGSGSGTDFTLTISSLQPEDFATYYCQQSSSLPLTFGGGTKVEIK
# notes: subject PA01; also called Clone PA01P2C04
# B10: PA01P2E05 (antibody, V domains shown)
# VH: QVQLVESGGGFVKPGGSLRLSCAVSGFTFSDYYMSWVRQAPGKGLEWLSHISSDGSDTNYADSVKGRFSISRDNAKNSVFLQMNTLRVEDTAVYYCARNALTNAYDMSGFRNWGQGTLVTVSS
# VL: NFMLTQPHSVSESPGKTVILSCTRSSGSIASNYVRWYQQRPGSAPTTVIYEDSRRPSSVPDRFSGSIDSSSNSASLTISGLKTEDEADYYCQSFDSSSRKVVFGGGTKLTVL
# notes: subject PA01; also called Clone PA01P2E05
# B11: PA01P2C09 (antibody, V domains shown)
# VH: B10 VH with Q3D, F11Y, P14S, V24A, T28R, G55S, V88A, T117I
# VL: B10 VL with S31T, K82R, S96T
# notes: subject PA01; also called Clone PA01P2C09
# B12: PA01P2E10 (antibody, V domains shown)
# VH: QVQLVQSGAEVKKPGASVKVSCKASGYTFTTYGISWVRQAPGQGLEWMGWISAYNGNTTYAQNFHARVTMTTDTSTSTAYMELRSLRSDDTAVYFCARTSARTITIFGVLIPAGLNLDYWGQGTLVTVSS
# VL: QSALTQPASVSGSPGQSITISCTGTGSDVGRYNYVSWYQQHPGKAPKFMIYDVSNRPSGVSNRFSASKSGNTASLTISGLQAEDEADYYCSSYTSTSTLVFGGGTKLTVL
# notes: subject PA01; also called Clone PA01P2E10
# B13: PA01P2B09 (antibody, V domains shown)
# VH: QVEVVESGGGVVQPGKSLRLSCAASGFKFNVYGIHWVRQAPGKGLEWVAVVWYDGSNKYYADSVKGRFTISRDNSKNTTYLQMDSLRVDDTAVYYCARELQYSNYDYFYAMDVWGQGTTVTVSS
# VL: DIQMTQSPPSLSASVGDRVTITCRASQDIDNYLVWFQQKPGRAPKSLIYAASSLQSGVPSKFSGSGSGTEFTLTISSLQPEDFATYYCQQYNSFPYTFGQGTKLEIK
# notes: subject PA01; also called Clone PA01P2B09
# B14: PA01P2G07 (antibody, V domains shown)
# VH: QVLLVQSGSEVKNPGASIRVSCKTSGYMFTNNGIAWVREVPTQGLEWMGWISTYSGATHYAPNLHGRITMTADTSASTAYMELRSLQSGDTGVYYCARLWFGKLGLDFWGQGTQVTVSS
# VL: QSVLTQPPSASGTPGQRVIISCSGSTSNIGTKTVNWYQHLPGTAPKLLIYNNNQRPSGVPDRFSGSKSGTSASLTISGLQSEDEADYYCAAWDDSLNGRGLFGPGTKVTVL
# notes: subject PA01; also called Clone PA01P2G07
# B15: PA01P4C11 (antibody, V domains shown)
# VH: EVQLLESGGGLLQLGGSLRLSCAASGFTFSSYVMSWVRQAPGKGLEWVSLITGSGGNTYYADSVKGRFTISRDNSKNTLFLQMNSLRVEDTAIYYCVKTDFYDSSGYYFHDAFHIWGQGTMVTVSS
# VL: QTVVTQEPSLTVSPGGTVTLTCASSTGSVTSGYYPNWFQQKPGQAPRTLIYGTSNKHSWTPARFSGSLLGGKAALTLSDVQPEDEAEYYCLLYYGGAYVFGTGTKVTVL
# notes: subject PA01; also called Clone PA01P4C11
# B16: PA01P2C12 (antibody, V domains shown)
# VH: HVQLQESGPGLVKSSETLSLTCNVSSDSFSDHYWSWVRQPAGKGLQWLGRIYNTGTTTYNPSLNRRITMSVDTSKNQFSLRLTSVTAADTAVYYCAARHYHYDKTIWGQGTLVTVSS
# VL: NFMLTQPHSVSESPGKTVTISCTRSSGSIASNYVQWYQQRPGSPPTTVIYEDNQRPSGVPDRFSGSIDSSSNSASLTISGLKPEDEADFYCQSYDSDDREVFGGGTRLTVL
# notes: subject PA01; also called Clone PA01P2C12
# B17: PA01P2B04 (antibody, V domains shown)
# VH: QVQLQQWGAGLLKPSETLSLTCTVIGTSFSNYYWSWIRQPPGKGLQWIGEITHSDSANYNPSLKSRVIISIDSSKNQLSLNLSSVTAADTAVYYCARGSKDYYDRSTFSWFDPWGQGTLVTVSS
# VL: EIVMTQSPATLSVSPGERATLSCRASQNISNKLAWYQQKPGQAPRLLIYDASTRATGVPARFSCSVSGTAFTLTINRLQSEDFAVYYCQQYYYWPPPYTFGHGTKLEIK
# notes: subject PA01; also called Clone PA01P2B04
# B18: PA01P2B03 (antibody, V domains shown)
# VH: EVQLVQSGAEVKKPGESLKISCKGSGYNFTSSWIGWVRQMPGKGLEWMGIIHPGDSDTRYSPSFQGQVTISADKSLTTAFLQWSSLKTSDTAIYYCARHGSTMLWGDAFDIWGQGTMVTVSS
# VL: SYELTQPPSVSLSPGQTARITCSGDALPKHYAYWYQQKPGQAPVLVIYKDTERPSGIPERFSGSSSGTTVTLTISGVQAEDEADYYCQSSDSTGEVFGGGTKLTVL
# notes: subject PA01; also called Clone PA01P2B03
# B19: PA01P2B10 (antibody, V domains shown)
# VH: QVQLQQWGAGLLKPSETLSLTCGVHGGSLNNYYWSWIRQPPGKGLEWIGEVYHSGSINYNPSLKSRVTMSVDTSKNQFSFNLSSVTAADTAVYYCARGAYDSRGFWTLDAFNTWGQGTMVIVSS
# VL: DIQMTQSPSALSASLGDRVTITCRASESINSWLAWYQQKPGKAPKLLIYKASTLESGVPSRFSGSGSGTEFTLTISSLQPDDFATYYCHQYNRYSYTFGQGTKLDIK
# notes: subject PA01; also called Clone PA01P2B10
# B20: PA01P1D06 (antibody, V domains shown)
# VH: QVTLRESGPALVEVTQTVTLTCNFSGFSLHTRGMYVNWIRQPPGKALEWLAVINWDDDKYYTPSLKNRLTISKDTSKNQVVLTMTNMDPVDTATYYCARTDYGGYGPEGFDYWGQGTLVTVSS
# VL: EIVMTQSPATLSVSPGESATLSCRASQSVRSNLAWYQQKPGQAPRLLIYGASTRAPGVPARFTGSESGREFTLTISSLQSEDFAVYYCQQYNNWPPYTFGQGTKLEIK
# notes: subject PA01; also called Clone PA01P1D06
# B21: PA01P2E07 (antibody, V domains shown)
# VH: QLQLQESGSGLVKPSQTLSLTCAVSGGSITSGTYSWTWIRQSPEKGLEWIGYIYYTGSTYYNPSLGRRVTISGDTSNNEFSLNLKSVTAADTAVYYCARGIHRGGVLDFWGQGILVTVSS
# VL: EIVLTQSPATLPLSPGERATLSCRASQSLDKYLAWYQQKPGQAPRLLIYDTSKRATGIPARFSGSGSGTDFTLTISSLEPEDFAVYFCQQRNNWPPYTFGQGTKVEMK
# notes: subject PA01; also called Clone PA01P2E07
# B22: PA01P2A05 (antibody, V domains shown)
# VH: QVQLQESGPGLVKPSQTLSLTCTVSGGSMRSGDYYWSWIRQPPGKGLEWIGYIYFTGSSYYNPSLKSRATISVDTSKNQFSLKLNSVTAADTAVYFCARGVDVDLTFFDCWGHGTLVTVSS
# VL: SYVLTQPPSVSLAPGKTARITCGGNNIGNKSVHWYQQKPGQAPVLVIYYDSDRPSGIPERFSGSNSGNTATLTINRVEAGDEADYHCQVWDSSTDHRVFGEGTKLTVL
# notes: subject PA01; also called Clone PA01P2A05
# Target: T1, BSA (UniProt P02769 25-607)
# T1 construct: also called bovine serum albumin; immobilized BSA
# T1 sequence (P02769 25-607 limits assumed): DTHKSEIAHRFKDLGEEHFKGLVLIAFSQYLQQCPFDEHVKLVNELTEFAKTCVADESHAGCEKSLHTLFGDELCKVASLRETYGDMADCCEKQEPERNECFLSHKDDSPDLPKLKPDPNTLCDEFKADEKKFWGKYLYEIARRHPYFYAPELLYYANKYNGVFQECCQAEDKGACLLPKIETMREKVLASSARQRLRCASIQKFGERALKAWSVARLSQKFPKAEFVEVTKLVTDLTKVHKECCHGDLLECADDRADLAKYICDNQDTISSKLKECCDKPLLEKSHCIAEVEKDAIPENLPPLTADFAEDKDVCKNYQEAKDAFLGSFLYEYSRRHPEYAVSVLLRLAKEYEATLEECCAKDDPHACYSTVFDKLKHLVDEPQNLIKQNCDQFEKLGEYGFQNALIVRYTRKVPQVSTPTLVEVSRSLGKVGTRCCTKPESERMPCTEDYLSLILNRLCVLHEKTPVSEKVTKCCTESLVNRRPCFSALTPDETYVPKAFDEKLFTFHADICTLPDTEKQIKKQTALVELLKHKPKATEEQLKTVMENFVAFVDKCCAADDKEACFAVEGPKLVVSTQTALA
# Experiment: indirect ELISA heat map, hIgG subtracted
row,Binder,binding result
1,B1,no binding (tested: 2 ng/µL)
2,B2,no binding (tested: 2 ng/µL)
3,B3,no binding (tested: 2 ng/µL)
4,B4,no binding (tested: 2 ng/µL)
5,B5,no binding (tested: 2 ng/µL)
6,B6,no binding (tested: 2 ng/µL)
7,B7,no binding (tested: 2 ng/µL)
8,B8,no binding (tested: 2 ng/µL)
9,B9,no binding (tested: 2 ng/µL)
10,B10,no binding (tested: 2 ng/µL)
11,B11,no binding (tested: 2 ng/µL)
12,B12,no binding (tested: 2 ng/µL)
13,B13,no binding (tested: 2 ng/µL)
14,B14,no binding (tested: 2 ng/µL)
15,B15,no binding (tested: 2 ng/µL)
16,B16,no binding (tested: 2 ng/µL)
17,B17,no binding (tested: 2 ng/µL)
18,B18,no binding (tested: 2 ng/µL)
19,B19,no binding (tested: 2 ng/µL)
20,B20,no binding (tested: 2 ng/µL)
21,B21,no binding (tested: 2 ng/µL)
22,B22,no binding (tested: 2 ng/µL)
